Test [1] has as its target T1, Flag tagged recombinant DLL3 (Adipogen) (Homo sapiens (Human), UniProt Q9NYJ7 27-492).
T1 construct: Bought reagent; also called Flag-DLL3
T1 sequence: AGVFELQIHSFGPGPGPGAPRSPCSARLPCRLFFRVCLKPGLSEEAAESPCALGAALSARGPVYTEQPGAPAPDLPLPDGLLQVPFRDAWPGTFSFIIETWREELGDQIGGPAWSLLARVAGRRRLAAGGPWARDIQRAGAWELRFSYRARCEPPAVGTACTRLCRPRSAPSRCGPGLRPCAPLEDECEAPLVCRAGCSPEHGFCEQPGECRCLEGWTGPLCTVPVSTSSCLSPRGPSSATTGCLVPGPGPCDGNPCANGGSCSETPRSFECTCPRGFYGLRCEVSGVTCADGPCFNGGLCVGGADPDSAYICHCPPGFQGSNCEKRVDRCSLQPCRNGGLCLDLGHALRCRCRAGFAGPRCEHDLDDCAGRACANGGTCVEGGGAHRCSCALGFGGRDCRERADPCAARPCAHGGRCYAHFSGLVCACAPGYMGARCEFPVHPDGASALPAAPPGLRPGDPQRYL
In words: flow cytometry, percent of T cells that recognise recombinant DLL3, Donor 116. For orientation: A flow cytometer gives signals particle by particle.
Method: (§1) To determine the percentage of T cells that were successfully transduced with DLL3 CAR, T cells were first incubated with 1 ug/ml Flag tagged recombinant DLL3 (Adipogen) in PBS+1% BSA for 20 minutes at 4 C.

In test [2] the target is T1, Flag tagged recombinant DLL3 (Adipogen). In words: flow cytometry, percent of T cells that recognise recombinant DLL3, Donor 117.
Method: as §1
Test [3] has the same target. In words: flow cytometry, primary T cells with the CAR, 1 ug/ml Flag tagged recombinant DLL3, PE anti-Flag.
Method: as §1
Test [4] shares this target. In words: flow cytometry, percent of T cells that recognise recombinant DLL3, Donor 419.
Method: as §1

B1: 9D3 (other)
CAR: QVQLQESGPGLVKPSETLSLTCTVSDDSISNYYWSWIRQPPGKGLEWIGYIFYSGTTNHNPSLKSRLTISLDKAKNQFSLRLSSVTAADTAVYYCARVFNWGFAFDIWGQGTMVTVSSGGGGSGGGGSGGGGSGGGGSEIVLTQSPGTLSLSPGERATLSCRASQRISRTYLAWYQQKPGQAPRLLIYGASSRATGIPDRFTGSGSGTDFTLTISRLEPEDFAVYYCQQYGTSPLTFGGGTKVEINTTTPAPRPPTPAPTIASQPLSLRPEACRPAAGGAVHTRGLDFACDIYIWAPLAGTCGVLLLSLVITKRGRKKLLYIFKQPFMRPVQTTQEEDGCSCRFPEEEEGGCELRVKFSRSADAPAYQQGQNQLYNELNLGRREEYDVLDKRRGRDPEMGGKPRRKNPQEGLYNELQKDKMAEAYSEIGMKGERRRGKGHDGLYQGLSTATKDTYDALHMQALPPR
notes: also called anti-DLL3 CAR with 9D3 scFv, on primary T cells
Regarding B1, the Transduction efficiency in test [1] came out at 52.4%; in test [2], 50.8%. For the same molecule, the “Rec-DLL3 gate, percent of live CD3+ cells” value (shortened to “Rec-DLL3 gate, percent”) in test [3] was 52.4%.

B2: 7F9 (other)
CAR: EVQLVESGGGLVQPGGSLRLSCAASGFTFSSHDMHWVRQATGKGLEWVSAIGIAGDTYYSGSVKGRFTISRENAKNSLYLQMNSLRAGDTAVYYCARANWGEGAFDIWGQGTMVTVSSGGGGSGGGGSGGGGSGGGGSDIQMTQSPSSLSASVGDRVTITCRASQGISDYLAWYQQKPGKIPKLLIYAASTLQSGVPSRFSGSGSGTDFTLTISSLQPEDVATYYCQKYNSVPLTFGGGTKVEIKTTTPAPRPPTPAPTIASQPLSLRPEACRPAAGGAVHTRGLDFACDIYIWAPLAGTCGVLLLSLVITKRGRKKLLYIFKQPFMRPVQTTQEEDGCSCRFPEEEEGGCELRVKFSRSADAPAYQQGQNQLYNELNLGRREEYDVLDKRRGRDPEMGGKPRRKNPQEGLYNELQKDKMAEAYSEIGMKGERRRGKGHDGLYQGLSTATKDTYDALHMQALPPR
notes: also called anti-DLL3 CAR with 7F9 scFv, on primary T cells
For B2, the Transduction efficiency in test [1] turned out to be 42.2%; in test [2], 37.4%. Further, the “Rec-DLL3 gate, percent” value in test [3] stood at 42.2%.

B3: 2D3 (other)
CAR: QVQLQESGPGLVKPSETLSLTCTVSDNSISNYYWSWIRQPPGKGLEWIAYIYYSGTTNYNPSLKSRVTISLDTSKNQFSLKLSSVTAADTAVYYCARLFNWGFAFDIWGQGTMVTVSSGGGGSGGGGSGGGGSGGGGSEIVMTQSPATLSVSPGERATLSCRASQSVSSNLAWYQQKPGQAPRLLIYGASTRATGIPARFSGSGSGTEFTLTISSLQSEDFAVYYCQQYNNWPLTFGGGTKVEIKTTTPAPRPPTPAPTIASQPLSLRPEACRPAAGGAVHTRGLDFACDIYIWAPLAGTCGVLLLSLVITKRGRKKLLYIFKQPFMRPVQTTQEEDGCSCRFPEEEEGGCELRVKFSRSADAPAYQQGQNQLYNELNLGRREEYDVLDKRRGRDPEMGGKPRRKNPQEGLYNELQKDKMAEAYSEIGMKGERRRGKGHDGLYQGLSTATKDTYDALHMQALPPR
notes: also called anti-DLL3 CAR with 2D3 scFv, on primary T cells
As for B3, the Transduction efficiency in test [1] is 46.1%; in test [2], 47.4%. For the same molecule, the “Rec-DLL3 gate, percent” value in test [3] came to 46.1%.

B4: 26C8 (other)
CAR: QVQLQESGPGLVKPSETLSLTCTVSDNSISNYYWSWIRQPPGKGLEWIAYIYYSGTTNYNPSLKSRVTISLDTSKNQFSLQLSSVTAADAAVYYCARVFHWGFAFDIWGQGTMVTVSSGGGGSGGGGSGGGGSGGGGSEIVLTQSPGTLSLSPGERATLSCRASQRVSNTYLAWYQQNPGQAPRLLIYGASSRATGIPDRFSGSGSGTDFTLTISRLEPEDFAVYYCQQYGTSPLTFGGGTKVEIKTTTPAPRPPTPAPTIASQPLSLRPEACRPAAGGAVHTRGLDFACDIYIWAPLAGTCGVLLLSLVITKRGRKKLLYIFKQPFMRPVQTTQEEDGCSCRFPEEEEGGCELRVKFSRSADAPAYQQGQNQLYNELNLGRREEYDVLDKRRGRDPEMGGKPRRKNPQEGLYNELQKDKMAEAYSEIGMKGERRRGKGHDGLYQGLSTATKDTYDALHMQALPPR
notes: also called anti-DLL3 CAR with 26C8 scFv, on primary T cells
For B4, the Transduction efficiency was 48.9% in test [1] and 46.9% in test [2]. Further, the “Rec-DLL3 gate, percent” value in test [3] amounted to 48.9%.

B5: 8E11 (other)
CAR: QVQLQESGPGLVKPSETLSLTCTVSGDSISNYYWTWIRQPPGKGLEWIGYIYYSGTTNSNPSLKSRVTVSLDTSKSQFSLNLSSVTAADTAVYYCARVFNRGFAFDIWGQGTMVTVSSGGGGSGGGGSGGGGSGGGGSEIVLTQSPGTLSLSPGERATLSCRASQRISNTYLAWYQQKPGQAPRLLIYGASSRATGIPDRFSGSGSGTDFTLTISRLEPEDFAAYYCQQYDTSPLTFGGGTKVEIKTTTPAPRPPTPAPTIASQPLSLRPEACRPAAGGAVHTRGLDFACDIYIWAPLAGTCGVLLLSLVITKRGRKKLLYIFKQPFMRPVQTTQEEDGCSCRFPEEEEGGCELRVKFSRSADAPAYQQGQNQLYNELNLGRREEYDVLDKRRGRDPEMGGKPRRKNPQEGLYNELQKDKMAEAYSEIGMKGERRRGKGHDGLYQGLSTATKDTYDALHMQALPPR
notes: also called anti-DLL3 CAR with 8E11 scFv, on primary T cells
B5: the Transduction efficiency amounted to 39.1% in test [1] and 41.4% in test [2]. In addition, the “Rec-DLL3 gate, percent” value in test [3] amounted to 39.1%.

B6: 6D8 (other)
CAR: QITLKESGPTLVKPTQTLTLTCTFSGFSLSTRGVGVGWIRQPPGKALEWLALIYWNDDKRYSPSLQTRLTITKDTPKNQVVLTMTNMDPVDTATYYCARSNWGNWYFALWGRGTLVTVSSGGGGSGGGGSGGGGSGGGGSEIVLTQSPATLSLSPGERATLSCRASQSVSSYLAWYQQKPGQAPRLLIYDAFYRATGIPARFSGSGSGTDFTLTISSLEPEDFAVYYCQHRSNWPITFGQGTRLEIKTTTPAPRPPTPAPTIASQPLSLRPEACRPAAGGAVHTRGLDFACDIYIWAPLAGTCGVLLLSLVITKRGRKKLLYIFKQPFMRPVQTTQEEDGCSCRFPEEEEGGCELRVKFSRSADAPAYQQGQNQLYNELNLGRREEYDVLDKRRGRDPEMGGKPRRKNPQEGLYNELQKDKMAEAYSEIGMKGERRRGKGHDGLYQGLSTATKDTYDALHMQALPPR
notes: also called anti-DLL3 CAR with 6D8 scFv, on primary T cells
For the molecule B6, the Transduction efficiency was 32.4% in test [1] and 34.8% in test [2]. Further, the “Rec-DLL3 gate, percent” value in test [3] turned out to be 32.4%.

B7: 4F9 (other)
CAR: QVQLQQWGAGLLKPSETLSLTCAVYGGSFSGYYWTWIRQPPGKGLEWIGEITHSGSTNYNPSLKSRVSISVDTSKNQFSLKLSSVTAADTAVYYCARGEYGSGSRFDYWGQGTLVTVSSGGGGSGGGGSGGGGSGGGGSAIQMTQSPSSLSASVGDRVAITCRASQGIRDDLGWYQQKPGKAPKLLIYAASSLQSGVPSRFSGSGSDTDFTLTISSLQPEDFATYYCLQDYDYPLTFGGGTKVEIKTTTPAPRPPTPAPTIASQPLSLRPEACRPAAGGAVHTRGLDFACDIYIWAPLAGTCGVLLLSLVITKRGRKKLLYIFKQPFMRPVQTTQEEDGCSCRFPEEEEGGCELRVKFSRSADAPAYQQGQNQLYNELNLGRREEYDVLDKRRGRDPEMGGKPRRKNPQEGLYNELQKDKMAEAYSEIGMKGERRRGKGHDGLYQGLSTATKDTYDALHMQALPPR
notes: also called anti-DLL3 CAR with 4F9 scFv, on primary T cells
As for B7, the Transduction efficiency in test [4] amounted to 49.4%; in test [1], 67.5%.

B8: 2A6.C5 (other)
CAR: QVQLQESGPGLVKPSETLSLTCTVSNVSISSYYWSWIRQPPGKGLEWIGYIYYSGTTNYNPSLKSRVTMSVDTSKNQFSLKLSSVTAADTAVYFCARLSNWGFAFDIWGQGTMVTFSSGGGGSGGGGSGGGGSGGGGSEIVLTQSPGTLSLSPGERATLSCRASQTISSSYLAWYQQKPGQAPRLLIYGASSRATGIPDRFSGSGSGTEFTLTISRLEPEDFAVYYCQQYGWSPITFGQGTRLEIKTTTPAPRPPTPAPTIASQPLSLRPEACRPAAGGAVHTRGLDFACDIYIWAPLAGTCGVLLLSLVITKRGRKKLLYIFKQPFMRPVQTTQEEDGCSCRFPEEEEGGCELRVKFSRSADAPAYQQGQNQLYNELNLGRREEYDVLDKRRGRDPEMGGKPRRKNPQEGLYNELQKDKMAEAYSEIGMKGERRRGKGHDGLYQGLSTATKDTYDALHMQALPPR
notes: also called anti-DLL3 CAR with 2A6.C5 scFv, on primary T cells
In the case of B8, the Transduction efficiency turned out to be 37.2% in test [1] and 37.7% in test [2]. In test [3], the “Rec-DLL3 gate, percent” value came to 37.2%.

B9: 5A2 (other)
CAR: QVQLQESGPGLMKPSETLSLTCTVSGGSISSSYWSCIRQPPGKGLEWIGYIYYSGTTNYNPSLKSRVTLSLDTSKNQFSLRLTSVTAADTAVYYCARVAPTGFWFDYWGQGTLVTVSSGGGGSGGGGSGGGGSGGGGSEIVLTQSPGTLSLSPGERATLSCRASQRVSSRYLAWYQQKPGQAPRLLIYGASSRATGIPDRFSGSGSGTDFTLTISRLEPEEFAVYYCQQYGTSPLTFGGGTKVEIKTTTPAPRPPTPAPTIASQPLSLRPEACRPAAGGAVHTRGLDFACDIYIWAPLAGTCGVLLLSLVITKRGRKKLLYIFKQPFMRPVQTTQEEDGCSCRFPEEEEGGCELRVKFSRSADAPAYQQGQNQLYNELNLGRREEYDVLDKRRGRDPEMGGKPRRKNPQEGLYNELQKDKMAEAYSEIGMKGERRRGKGHDGLYQGLSTATKDTYDALHMQALPPR
notes: also called anti-DLL3 CAR with 5A2 scFv, on primary T cells
Consider B9, for which the values for the Transduction efficiency in test [1] and in test [2] were 49.1% and 47.4%, respectively. Also, the “Rec-DLL3 gate, percent” value in test [3] came out at 49.1%.
